# Assay results from article PMC8054141.
# Experiments:
# Venus-PreIQ3-IQ-A1.3 = assay: FRET two-hybrid assay; settings: parent: est. 22; read off a plot
# Cerulean-ICDI1.4 = assay: FRET two-hybrid assay; settings: read off a plot
Substance,Ka (Venus-PreIQ3-IQ-A1.3) [µM⁻¹],Ka (Cerulean-ICDI1.4; parent: est. 21) [µM⁻¹],other results
Cerulean-ICDI1.4 ACR[1917]AAA,14,–,–
Cerulean-ICDI1.4 ASD[1929]AAA,30,–,–
Cerulean-ICDI1.4 CVH[1962]AAA,51,–,–
Cerulean-ICDI1.4 DNA[1926]AAA,7,–,–
Cerulean-ICDI1.4 EES[1944]AAA,38,–,–
Cerulean-ICDI1.4 EGL[1895]AAA,6,–,–
Cerulean-ICDI1.4 GLF[1898]AAA,3.5,–,–
Cerulean-ICDI1.4 ILS[1947]AAA,37,–,–
Cerulean-ICDI1.4 LGD[1956]AAA,50,–,–
Cerulean-ICDI1.4 SAD[1883]AAA,30,–,–
Cerulean-ICDI1.4 SDP[1874]AAA,31,–,–
Venus-IQ-A1.3 AGL[1638]AAA,–,–,Ka (Cerulean-ICDI1.4; parent: est. 26 µM^-1): 7.5 µM⁻¹
Venus-IQ-A1.3 AIS[1653]AAA,–,–,Ka (Cerulean-ICDI1.4; parent: est. 26 µM^-1): 9.5 µM⁻¹
Venus-IQ-A1.3 AKN[1629]AAA,–,–,Ka (Cerulean-ICDI1.4; parent: est. 26 µM^-1): 22 µM⁻¹
Venus-IQ-A1.3 ALQ[1635]AAA,–,–,Ka (Cerulean-ICDI1.4; parent: est. 26 µM^-1): 8.5 µM⁻¹
Venus-IQ-A1.3 GPE[1647]AAA,–,–,Ka (Cerulean-ICDI1.4; parent: est. 26 µM^-1): 44 µM⁻¹
Venus-IQ-A1.3 HDI[1644]AAA,–,–,Ka (Cerulean-ICDI1.4; parent: est. 26 µM^-1): 55 µM⁻¹
Venus-IQ-A1.3 IRR[1650]AAA,–,–,Ka (Cerulean-ICDI1.4; parent: est. 26 µM^-1): 8 µM⁻¹
Venus-IQ-A1.3 KYP[1626]AAA,–,–,Ka (Cerulean-ICDI1.4; parent: est. 26 µM^-1): 25 µM⁻¹
Venus-IQ-A1.3 LVG[1623]AAA,–,–,Ka (Cerulean-ICDI1.4; parent: est. 26 µM^-1): 27 µM⁻¹
Venus-IQ-A1.3 RTL[1641]AAA,–,–,Ka (Cerulean-ICDI1.4; parent: est. 26 µM^-1): 7 µM⁻¹

Substance,Ka (Venus-PreIQ3-IQ-A1.3) [µM⁻¹],Ka (Cerulean-ICDI1.4; parent: est. 21) [µM⁻¹],other results
Venus-IQ-A1.3 TTI[1632]AAA,–,–,Ka (Cerulean-ICDI1.4; parent: est. 26 µM^-1): 54 µM⁻¹
Venus-PreIQ3-IQ-A1.3 A[-4]T,–,9,–
Venus-PreIQ3-IQ-A1.3 A[-16]T,–,18,–
Venus-PreIQ3-IQ-A1.3 D[+2]A,–,18,–
Venus-PreIQ3-IQ-A1.3 D[-13]A,–,28,–
Venus-PreIQ3-IQ-A1.3 E[-12]A,–,37,–
Venus-PreIQ3-IQ-A1.3 F[+4]A,–,3.2,–
Venus-PreIQ3-IQ-A1.3 F[-6]A,–,12,–
Venus-PreIQ3-IQ-A1.3 G[-8]A,–,32,–
Venus-PreIQ3-IQ-A1.3 G[-15]A,–,22,–
Venus-PreIQ3-IQ-A1.3 I[0]A,–,24,–
Venus-PreIQ3-IQ-A1.3 K[+8]A,–,15,–
Venus-PreIQ3-IQ-A1.3 K[-7]A,–,14,–
Venus-PreIQ3-IQ-A1.3 P[-17]A,–,16,–
Venus-PreIQ3-IQ-A1.3 P[-18]A,–,22,–
Venus-PreIQ3-IQ-A1.3 R[+5]A,–,16,–
Venus-PreIQ3-IQ-A1.3 R[+10]A,–,15,–
Venus-PreIQ3-IQ-A1.3 T[-3]A,–,34,–
Venus-PreIQ3-IQ-A1.3 T[-10]A,–,37,–
Venus-PreIQ3-IQ-A1.3 Y[-5]A,–,4.7,–

# Second part, led by results:
Ka (Venus-PreIQ3-IQ-A1.3) [µM⁻¹],Ka (Cerulean-ICDI1.4; parent: est. 21) [µM⁻¹],Substance,other results
38,–,Cerulean-ICDI1.4 ALA[1908]AAA,–
37,–,Cerulean-ICDI1.4 EAV[1889]AAA,–
40,–,Cerulean-ICDI1.4 EED[1953]AAA,–
26,–,Cerulean-ICDI1.4 EMA[1959]AAA,–
48,–,Cerulean-ICDI1.4 GTH[1871]AAA,–
42,–,Cerulean-ICDI1.4 HVP[1868]AAA,–
6.5,–,Cerulean-ICDI1.4 KRG[1880]AAA,–
56,–,Cerulean-ICDI1.4 QGT[1935]AAA,–
51,–,Cerulean-ICDI1.4 RFD[1950]AAA,–
61,–,Cerulean-ICDI1.4 SHG[1877]AAA,–
46,–,Cerulean-ICDI1.4 SSL[1938]AAA,–
–,14,Venus-PreIQ3-IQ-A1.3 D[-14]A,–
–,15,Venus-PreIQ3-IQ-A1.3 F[+7]A,–
–,15,Venus-PreIQ3-IQ-A1.3 K[+6]A,–
–,15,Venus-PreIQ3-IQ-A1.3 K[+9]A,–
–,15,Venus-PreIQ3-IQ-A1.3 K[+11]A,–
–,7,Venus-PreIQ3-IQ-A1.3 L[-1]A,–
–,24,Venus-PreIQ3-IQ-A1.3 Q[+1]A,–
–,11,Venus-PreIQ3-IQ-A1.3 V[-9]A,–
–,15,Venus-PreIQ3-IQ-A1.3 V[-11]A,–
–,25,Venus-PreIQ3-IQ-A1.3 Y[+3]A,–
